This is an account of results in the supplement of paper PMC11502859.
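Further: lentiviral eGFP-IRES-mCherry reporter pool sorted by FACS 96 h post-transduction, gated on mCherry-high cells, Illumina read counts normalized per million, median across four biological replicates.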

In this data set the test system is HEK293T. The data set can be described thus: median enrichment of reporter reads in eGFP-reduced (low/intermediate) vs eGFP-high sorted cells (eGFP-extension fusion abundance) (ratio); higher = stronger loss of eGFP-fusion protein abundance (more destabilising extension).
Regarding “LAGAAGVPPAPGPWVSAARPPPVPAVLSVHWGPSVVPFVENLLHKALLNCLELGTSIPMETSPVWGTWRICQRLSDMGPWQFY [NYNRIN]”, the median enrichment came to 6.95. Take SGQGPRTQCLARPLPLAFEAKASSR [AGT]: the median enrichment worked out at 0.949. For KLDLII [OR4S2], the median enrichment worked out at 1.99.

GSGP [LCE1D]: the median enrichment worked out at 0.314. The same measure for LGRTSALSDRTLRAMLPCHP [MRGPRX3]: 7.42; for YKTPCSAILISYR [APOO]: 4.54.

Consider REQ [UNC93A], for which the median enrichment was 5.69.

As to KVKP [TRPC5], the median enrichment was 0.338. Consider “GQRQRVLPKPLLPLWMLSLTLTHHCASLQTPRAQDWARPRDSHPFPSWEELACLATDSVSSNWLKWALPRVQLCGFYHA [IQGAP3]”, for which the median enrichment is 15.7. For the substance ETGPTHHSPSPSISTWCLVPVHSVNKKP [KLK11], the median enrichment was 2.42. Turning to WHRRTPGDFLYICRLRLFVTSKWDIV [TAF4], the median enrichment stood at 5.8. “WVLSRAVEVPVIPAGAAATQSGRQGGEHLSATETNHSLFAQHASSSVLHSSPGSLSGSSTESFCSLKCWDA [CGNL1]”: the median enrichment came to 8.11. For WQMVIPFYFSS [CXorf1], the median enrichment stood at 10.3. With RVEPTSLPSQQARN [TMEM143], the median enrichment stood at 0.919. Then CQFKEKKM [PHTF2], with 0.408; and WIEKI [GTF2A2], with 1.64; and SPF [SDHD], with 0.337. Then CTLGAVSSKSL [ZFC3H1], with 0.779; and YILYNCEINLR [OR4F4], with 5.6. The same measure for LFLNALPHIFRKSRELLP [OR5AU1]: 9.77; for ETSSGQNRRVPNYVLKP [SLC10A2]: 0.355. For the substance RDI [ACSM2A], the median enrichment stood at 0.259. Take “CRALMSPTRKLTPNKRLPFPLGFFVLFLSKRDR [IPO5]”: the median enrichment worked out at 4.2. As for KKKKKKKKK [Lys09], the median enrichment came out at 3.65. The same measure for “YYSKIKYINIYIYIYFRKKKKTNKQKNPTPVDTLIFPNEDFIYGMEWKKKQLF [BMP2]”: 49. Then “WLVGLGSSARTSSPALAVVVQALQSAAGLFIKGIYICK [NRN1L]”, with 7.25; and SRSRDDALFSAIYPKLFQI [PCDHB5], with 2.76; and LSSQLPGPLP [COMMD9], with 0.399.

As to YGRWEVSSLSLACSSSWT [REG3G], the median enrichment is 6.24. The same measure for CRRQKISFVQKSKMKRM [INSIG2]: 3.96.

“CGWNQGQPALRASVLLRGAVCGEGLSWQGKHLRVTLTLGPLLFLKRLLATGKKNDLATLEETSAKEDVLASLSYFCSVVDLHI [POLR1D]”: the median enrichment turned out to be 8.09. Turning to “GYSHPGTEKAADGDCLPQPQQHLGLQLLESYHPRRQAQPGRGEEWAVKMKPHAQSPPIPHAAPPQSQATSCLLLVGGGLLSPS [LGALS9]”, the median enrichment stood at 3.94. For “YQFCPTSLSPQPLQSSVTCCGLYSGSALATSPNISSSFSPSDLTVQ [JOSD1]”, the median enrichment was found to be 7.58. For the substance SDSESN [MCM6], the median enrichment is 0.12. RQLQELNSLAPEELAAQEAKLAF [TMEM81]: the median enrichment worked out at 0.0302. The same measure for “GGGGQVTRSGLSFWGCRSTEPLTPVCPRSPNRCGSSSERLSVQAMGQDRKVPELGKPGCNFLLHPAPPEVLRRVFLGIVFCSC [JUP]”: 5.66; for “PKWNHLTSAAPDLPGRMPLPLPSSNPQTRTPFLPPQAGPAPGVGSALSTPRAPRPSEGAPAGASDTLQFRAVGGLGHIPVPWL [SECTM1]”: 1.79. Regarding RALLERLLCHPFAPERGSSQLS [DNPEP], the median enrichment was determined as 9.53. Then YYYYYYYYYY [Tyr10], with 6.9. For the substance “GWLPRPGRLLDILFWLNIVLWMVPQSGARILPRRKATNGSGNYIKPETLQQGENCAPGCLAQASLEPSKHFCPS [MAB21L3]”, the median enrichment was found to be 7.37. Take LAEEVGMGALCLLC [FGA]: the median enrichment was 11.4.

In the case of QSSLSR [SCAF8], the median enrichment turned out to be 1.11. The same measure for WRGLQGSLLWVPT [RNF152]: 6.67.

“SCIAGLSSAASTECQAPHSAHPWALLRGPKTQEEERSACPLPPPLQYSLCAVV [SYCN]”: the median enrichment is 10.8. The same measure for “CGLGWAGARRAAGWPLGGQDGTVGTEVGGRGPSGLN [TNFRSF8]”: 5.21; for SRMGLSL [APOBEC3G]: 0.634. Then “WVGGISETGKVAALSHFFWNSWWSPGLGHCLSPACFFVRSGIISKCS [SLC35E2A]”, with 40.8. The same measure for QTLGNSISCIFDQIVTSFCI [RAB18]: 5.83; for YGF [ITSN2]: 0.445; for LCLI [UBP1]: 3.44.

Take “TAPALELGARAAELVFGPQRRIQNQKLKSDVRWAPAPSAESRQGEAGWSQAPSHAAPKSWTHLWGAPHLHLRPHISPLPFLYV [MYO9B]”: the median enrichment amounted to 5.92. For RGTAVPACSPHLGRGSLAAFSLRSRST [AGAP1], the median enrichment stood at 0.942.

Turning to “YMCPTDPGTFLPQCCACKYTVKLSLYHFDRGED [GLRA2]”, the median enrichment was found to be 11.1. Take “SACPQHLLPPSLGVWIPMELGSAGHNLFLASDLPAIIKWLQIGT [LRRC59]”: the median enrichment was 7.87. Turning to CKKKKKKALAFSCLFC [PCDH17], the median enrichment came to 46.4. The same measure for “WGHIQDNYTFAQPGIQMKVKMLEELVSRIDEQVHRHLDQHEVRYLQFAFRWMNNLLMREVPLRCTIRLWDTYQSEPDGFSHFH [TBC1D22A]”: 11.6; for EEEEEEEE [Glu08]: 0.411; for “LEVVFGVQLLPCTFSLLLSSSTPNRENLGVSGSIWALIYSPSFLSML [ZNF774]”: 9.71.

Consider “VGIRAAPSGAGTAGTAAILLLLVFFLLSKINCGNILVSCDVRCSFVVKFAIDIEIMTSVFPEIKHVSTQDFLDHSRKCQTFSQ [KISS1R]”, for which the median enrichment was found to be 7.04. Then QCDSQCNNIKISFYIII [ASNSD1], with 4.36; and “QEITRWHQPRALARYGEGTWGPHLPPGLFREDPTVTPPSAVGAWRWAAGLNPPWGAPFLLPICVYIHK [MEF2B]”, with 5.36; and “RESSCILENTIPDFPQTALHQYNCISSFYIVQ [SCRG1]”, with 13.8.

QAVFNLLLNWVFLALILIINHNL [FAM47A]: the median enrichment came to 5.56. On to WWWWWW [Trp06], for which the median enrichment was found to be 3.74.

For “LAWDTEGPVRSIYCNSNCNLVLRRRESMFGQQNFSLSLKFTASISFPY [NUPR2]”, the median enrichment was 7.51.

As for KPGNPYSFSNTGSFI [ADAM30], the median enrichment came to 0.59.

With QEATDRVSLVIRSQRFTI [ITM2A], the median enrichment was found to be 15.6.

Take LVRRLGAPPRLRPASISLLQWPAS [IRF8]: the median enrichment was 7.26. On to SALELLNLCPWGFHPNQCQGPPLPPSK [ACY1], for which the median enrichment was 2.

On to REKGNAQERNTVSPISDLDSTGYMEEI [OR8B8], for which the median enrichment is 0.597.

In the case of LFSFQILGTETI [FBXO4], the median enrichment was 14.6. For the substance WDGR [ZNF772], the median enrichment is 0.288. As for “YPWPPGLASSFWVSQAPLALTPLARSPSFRSS [PPFIA4]”, the median enrichment worked out at 16. Then RPLLRVCPAPFHQ [DYRK4], with 1.43.
